Test results as given in patent US20200271647A1 (SEOUL NATIONAL UNIVERSITY HOSPITAL, published 2020).
Substitutions are numbered along the chain they refer to.

B1: VH5/Vk0 (antibody, V domains shown)
VH: QVQLVQSGAEVKKPGSSVKVSCQGSGYSFPTHWITWVRQAPGQGLEWMGTIDPTDSYNFYGPSFQGRVTITADSSTSTAYMELSSLRSEDTAVYYCARDGNYYDSRGYYYDTFDMWGQGTLVTVSS
VL: DIQMTQSPSFLSASVGDRVTITCRASQGISTYLAWYQQKPGTAPKLLIYSASTLESGVPSRFSGSGSGTDFTLTISSLQPEDSATYYCQQADSFPLTFGGGTKVEIK
notes: CDR-grafted variant of the IgG1-based anti-cMet antibody 1E4; also called anti-cMet candidate antibody VH5/Vk0
B2: VH0/Vk2 (antibody, V domains shown)
VH: QVQLVQSGAEVKKPGESLRISCQGSGYSFPTHWITWVRQMPGKGLEWMGTIDPTDSYNFYGPSFQGHVTISADSSSSTAYLQWSSLKASDTAMYYCARDGNYYDSRGYYYDTFDMWGQGTLVTVSS
VL: B1 VL with F10S, T42K, S83F
notes: also called anti-cMet candidate antibody VH0/Vk2
B3: VH2/Vk0 (antibody, V domains shown)
VH: B2 VH with Q1E, R19K, Q23K, H67Q, S74K, S76I
VL: B1 VL
B4: VH2/Vk2 (antibody, V domains shown)
VH: B2 VH with Q1E, R19K, Q23K, H67Q, S74K, S76I
VL: B1 VL with F10S, T42K, S83F
B5: VH4/Vk2 (antibody, V domains shown)
VH: B1 VH with V93M
VL: B1 VL with F10S, T42K, S83F
notes: CDR-grafted variant of the IgG1-based anti-cMet antibody 1E4; also called anti-cMet candidate antibody VH4/Vk2
B6: VH6/Vk2 (antibody, V domains shown)
VH: B1 VH with Q23K, G24A, S74K
VL: B1 VL with F10S, T42K, S83F
notes: CDR-grafted variant of the IgG1-based anti-cMet antibody 1E4; also called anti-cMet candidate antibody VH6/Vk2
B7: VH4/Vk0 (antibody, V domains shown)
VH: B1 VH with V93M
VL: B1 VL
notes: CDR-grafted variant of the IgG1-based anti-cMet antibody 1E4; also called anti-cMet candidate antibody VH4/Vk0
B8: VH6/Vk0 (antibody, V domains shown)
VH: B1 VH with Q23K, G24A, S74K
VL: B1 VL
notes: CDR-grafted variant of the IgG1-based anti-cMet antibody 1E4; also called anti-cMet candidate antibody VH6/Vk0
B9: VH0/Vk0 (antibody, V domains shown)
VH: B2 VH
VL: B1 VL
notes: Derived from the IgG1-based 1E4 by a K to R change in the CH1 domain (G1m(3) allotype) and an S to T change in the light chain constant region (Km3 allotype); also called VMDO2 VH0/Vk0
B10: VH5/Vk2 (antibody, V domains shown)
VH: B1 VH
VL: B1 VL with F10S, T42K, S83F
notes: CDR-grafted variant of the IgG1-based anti-cMet antibody 1E4; also called anti-cMet candidate antibody VH5/Vk2

Assays:
[1] = biological target: T1, human c-Met antigen (Sino Biological) (human, UniProt P08581 25-932); test: SPR (BIACORE T200), antibody captured on protein A CM5 chip, human c-Met as analyte
T1 construct: Bought antigen used as the analyte in SPR; also called hepatocyte growth factor receptor; HGFR
T1 sequence (P08581 25-932 limits assumed): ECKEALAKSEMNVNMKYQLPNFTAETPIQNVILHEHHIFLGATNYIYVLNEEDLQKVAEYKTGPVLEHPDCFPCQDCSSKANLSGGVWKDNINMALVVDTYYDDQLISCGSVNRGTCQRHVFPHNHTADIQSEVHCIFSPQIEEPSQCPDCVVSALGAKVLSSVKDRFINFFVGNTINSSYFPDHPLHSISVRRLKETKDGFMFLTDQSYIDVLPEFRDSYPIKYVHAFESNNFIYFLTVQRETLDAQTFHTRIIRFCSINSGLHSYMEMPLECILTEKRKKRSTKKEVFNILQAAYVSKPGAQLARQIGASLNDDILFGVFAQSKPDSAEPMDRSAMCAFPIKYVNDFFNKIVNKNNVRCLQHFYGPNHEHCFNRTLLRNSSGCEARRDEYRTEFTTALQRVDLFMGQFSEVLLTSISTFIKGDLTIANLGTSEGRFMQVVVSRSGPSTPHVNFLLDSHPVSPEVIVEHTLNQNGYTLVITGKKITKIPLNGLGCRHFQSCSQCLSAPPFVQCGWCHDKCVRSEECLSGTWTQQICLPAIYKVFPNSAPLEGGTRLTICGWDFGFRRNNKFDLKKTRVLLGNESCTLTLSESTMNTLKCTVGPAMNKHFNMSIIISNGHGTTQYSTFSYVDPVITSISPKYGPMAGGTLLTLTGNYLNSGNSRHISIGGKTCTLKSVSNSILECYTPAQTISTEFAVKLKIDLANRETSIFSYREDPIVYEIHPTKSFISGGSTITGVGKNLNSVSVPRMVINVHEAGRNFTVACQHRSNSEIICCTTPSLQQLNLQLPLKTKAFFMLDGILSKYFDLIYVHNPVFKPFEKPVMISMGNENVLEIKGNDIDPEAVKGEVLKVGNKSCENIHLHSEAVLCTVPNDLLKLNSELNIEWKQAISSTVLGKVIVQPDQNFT
Protocol: (§1) After combining the above variants, each combination was subjected to measurement of a binding ability (that is, affinity). Then, using BIACORE T200 (serial no. 1909913) device, BIACORE T200 Control Software V2.0.1 and BIACORE T200 Evaluation Software V3.0 (GE Healthcare, Uppsala, Sweden) analysis program, affinity of each candidate antibody to the antigen, c-Met, was determined along with a dissociation constant (KD value). After fixing the anti-cMet antibody to be analyzed on a protein ACM5 chip (GE Healthcare, Little Chalfont, UK), sensorgrams were acquired by flowing human c-Met antigen (Sino Biological, Beijing, China) at different concentrations in a range of 0.25 to 2 nM over the antibody. Based on the acquired sensorgrams, rate constants kₒₙ and koff were measured and KD value was calculated from a ratio of koff/kₒₙ. The calculated results are shown in Table 10 below, wherein 10 analyzed antibodies were listed in the order of higher affinity to lower affinity.

[2] = biological target: T1, human c-Met antigen (Sino Biological); test: derived from SPR KD (BIACORE T200); values fit 3.52/KD, i.e. relative to the best KD (VH5/Vk0); reference not given
Protocol: as §1
(§2) In order to determine a final candidate group from the above selected candidate antibodies, standards for determination were subdivided into expression level, affinity, thermal stability and biopotency, and used for comparison. Generally, considering production time and costs, the expression level among the above standards is regarded as the most important indicator. Accordingly, in first consideration of smooth antibody production, the present inventors have excluded the candidate antibodies with an expression level of less than […]. Thereafter, compared to the reference antibody (VH0/Vk0), improvement of each candidate antibody was converted into a numerical value from each of selection indexes. Then, an assay value of the candidate antibody measured from the selection index was divided by an average assay value to obtain a ratio (index 1). This index 1 was again divided by a ratio of VH0/Vk0 to obtain index 2, which in turn, is normalized (Tables 12 to 15). Further, these numerical values analyzed from four selection indexes (that is, the above indicators) were subjected to multiplying operation, and the candidate antibodies were overall compared with respect to the four selection indexes. Therefore, the finally resultant values (index 3) were listed in the order (highest first).

[3] = biological target: c-Met protein receptor on human umbilical vein endothelial cells (HUVEC) (human, UniProt P08581 25-1390); test: cell-based or functional assay
Chain of c-Met protein receptor on human umbilical vein endothelial cells (HUVEC) (P08581 25-1390): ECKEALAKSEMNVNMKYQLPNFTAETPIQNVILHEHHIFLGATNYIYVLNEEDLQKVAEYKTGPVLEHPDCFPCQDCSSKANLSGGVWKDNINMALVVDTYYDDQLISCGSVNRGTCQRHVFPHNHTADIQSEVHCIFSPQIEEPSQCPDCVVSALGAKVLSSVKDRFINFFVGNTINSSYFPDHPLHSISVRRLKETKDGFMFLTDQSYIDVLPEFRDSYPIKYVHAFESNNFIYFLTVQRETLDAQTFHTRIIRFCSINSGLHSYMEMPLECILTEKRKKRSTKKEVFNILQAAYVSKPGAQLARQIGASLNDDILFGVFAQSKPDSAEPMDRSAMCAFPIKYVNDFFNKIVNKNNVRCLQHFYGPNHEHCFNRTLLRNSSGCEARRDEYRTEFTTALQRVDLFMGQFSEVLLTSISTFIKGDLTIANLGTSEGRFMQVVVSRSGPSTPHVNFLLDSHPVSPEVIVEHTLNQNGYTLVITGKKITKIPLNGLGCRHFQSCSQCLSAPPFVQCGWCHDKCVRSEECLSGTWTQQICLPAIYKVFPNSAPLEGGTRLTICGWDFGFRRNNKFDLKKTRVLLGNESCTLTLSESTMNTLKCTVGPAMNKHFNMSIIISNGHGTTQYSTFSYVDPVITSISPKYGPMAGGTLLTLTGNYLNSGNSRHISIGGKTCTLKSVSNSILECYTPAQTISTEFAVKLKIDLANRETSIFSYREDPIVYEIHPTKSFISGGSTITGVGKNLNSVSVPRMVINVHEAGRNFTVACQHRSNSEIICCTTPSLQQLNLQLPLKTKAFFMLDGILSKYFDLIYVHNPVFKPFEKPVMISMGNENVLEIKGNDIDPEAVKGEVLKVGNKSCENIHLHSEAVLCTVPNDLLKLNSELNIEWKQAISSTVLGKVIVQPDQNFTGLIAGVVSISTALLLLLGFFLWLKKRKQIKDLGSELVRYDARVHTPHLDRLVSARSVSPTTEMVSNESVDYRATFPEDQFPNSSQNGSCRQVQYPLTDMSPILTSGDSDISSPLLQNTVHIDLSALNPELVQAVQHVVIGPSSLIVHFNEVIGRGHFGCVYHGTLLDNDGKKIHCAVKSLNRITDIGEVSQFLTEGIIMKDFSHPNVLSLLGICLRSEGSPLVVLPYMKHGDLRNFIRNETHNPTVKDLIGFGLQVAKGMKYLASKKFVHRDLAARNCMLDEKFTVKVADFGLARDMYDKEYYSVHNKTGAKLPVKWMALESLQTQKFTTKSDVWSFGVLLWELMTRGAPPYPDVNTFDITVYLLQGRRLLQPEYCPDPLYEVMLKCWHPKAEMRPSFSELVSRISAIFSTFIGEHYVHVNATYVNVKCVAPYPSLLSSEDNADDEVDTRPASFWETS

[4] = biological target: T1, human c-Met antigen (Sino Biological); test: derived from SPR KD; index 1 divided by the ratio of VH0/Vk0
Protocol: as §1, §2

[5] = biological target: T1, human c-Met antigen (Sino Biological); test: SPR (BIACORE T200), antibody captured on protein A CM5 chip, human c-Met 0.25 to 2 nM as analyte
Protocol: as §1

| Binder | Relative KD to VH0/Vk0 [1] | Index 1 (affinity index from KD) [2] | Relative Migration (%) (HUVEC migration assay) [3] | Index 2 (affinity index normalised to VH0/Vk0) [4] | Kd [5] [nM] |
| --- | --- | --- | --- | --- | --- |
| B1 | 0.68 | 1 | 128 | 1.48 | 0.352 |
| B2 | 0.98 | 0.688 | 163 | 1.02 | 0.512 |
| B3 | 1.03 |  |  |  | 0.534 |
| B4 | 0.97 |  |  |  | 0.502 |
| B5 | 0.81 | 0.832 | 177 | 1.23 | 0.423 |
| B6 | 0.85 | 0.8 | 154 | 1.18 | 0.44 |
| B7 | 0.76 | 0.891 | 122 | 1.32 | 0.395 |
| B8 | 0.8 | 0.85 | 152 | 1.26 | 0.414 |
| B9 | 1 | 0.677 | 150 | 1 | 0.52 |
| B10 | 0.81 | 0.838 | 176 | 1.24 | 0.42 |
